± gives the half width of the 95% confidence interval.
Columns and labels:
[1] = folding stability dG unfold from trypsin proteolysis; higher = more stable
How it was run: (§1)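 Only designs with AlphaFold2 dimer inter-PAE above 15 were retained; each was a mini-protein under 80 residues with no cysteine, in a PA-tagged cDNA display construct. After digestion with trypsin and chymotrypsin and sequencing, K50 was inferred by Bayesian fitting of counts, and unfolding free energy was derived per protease or combined against a sequence-predicted unfolded-state K50 and a shared folded-state K50.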

[2] = folding stability dG unfold from chymotrypsin proteolysis; higher = more stable
How it was run: as §1

[3] = folding stability dG unfold (combined trypsin and chymotrypsin); higher = more stable
How it was run: as §1

Question: Which “folding stability dG unfold” value [1] does the source give for “SAGGSAGGSDMVLVTAPVDIPPNVKVEIKLKDGYETVSYDPESGRLVILVPANKLDEVLEAIKSAGGSAGGS [r12_476_TrMRF]” here?
Answer: The value was 0.996 ± 0.026 kcal/mol.

Question: And the “folding stability dG unfold” value [2]?
Answer: The value was 2.01 ± 0.087 kcal/mol.

Question: And the “folding stability dG unfold” value [3]?
Answer: Its value is 1.65 ± 0.075 kcal/mol.

Question: For “SKEKVKVEIKLTVTKVFPPEELEKDPKTGKYRNKDTGKWFEPPKVVVKELTLTIEMSKEEVEKLLKELLKSA [r9_165_TrROS_Hall]”, which “folding stability dG unfold” value [1] is on record?
Answer: Its value is 1.52 ± 0.059 kcal/mol.

Question: And the “folding stability dG unfold” value [2]?
Answer: Its value is 2.63 ± 0.048 kcal/mol.

Question: What about the “folding stability dG unfold” value [3] of the same sequence?
Answer: Its value is 2.29 ± 0.095 kcal/mol.

Question: Which “folding stability dG unfold” value [1] does the source give for “SAGGSAGGMKYLDVVLHPDTGATYSSLEEIKASSSGPFQIKTGDGKWIYLPVEELSSLPTPLASSAGGSAGG [r6_685_JUSTAS]” here?
Answer: Its value is 0.0571 ± 0.039 kcal/mol.

Question: And the “folding stability dG unfold” value [2]?
Answer: Its value is 0.331 ± 0.048 kcal/mol.

Question: And the “folding stability dG unfold” value [3]?
Answer: Its value is 0.247 ± 0.065 kcal/mol.

Question: Which “folding stability dG unfold” value [1] does the source give for “SAGGMVKIVRVTFEDGRELVLTEPEKIEEFLKKALGPNFVIKEVREGYVPHPDGPPIPTFELVVERPSAGGS [r16_408_TrMRF]” here?
Answer: Its value is 2.11 ± 0.053 kcal/mol.

Question: And the “folding stability dG unfold” value [2]?
Answer: Its value is 2.65 ± 0.021 kcal/mol.

Question: What about the “folding stability dG unfold” value [3] of the same sequence?
Answer: Its value is 2.44 ± 0.042 kcal/mol.

Question: Which “folding stability dG unfold” value [1] does the source give for “SAGGSAGGSAGGGPDAVRQFPPPVNLSVEVTSYTSPSSSLSNGKPEKSTFTTLNPTAGVSAGGSAGGSAGGS [r10_877_JUSTAS]” here?
Answer: The value was 0.0381 ± 0.13 kcal/mol.

Question: And the “folding stability dG unfold” value [2]?
Answer: The value was 0.0744 ± 0.19 kcal/mol.

Question: And the “folding stability dG unfold” value [3]?
Answer: Its value is 0.139 ± 0.11 kcal/mol.

Question: With “SAGKYIMHPIKAGAEIKITIPPEGYRIKIGMYYPNGGKMEEHEVPIKPGKTLEFKIPDPNFFVMIEPEPSAG [r5_797_TrROS]” as the sequence, how does the “folding stability dG unfold” value [1] read?
Answer: The value was 0.984 ± 0.1 kcal/mol.

Question: What about the “folding stability dG unfold” value [2] of the same sequence?
Answer: Its value is 1.57 ± 0.25 kcal/mol.

Question: What about the “folding stability dG unfold” value [3] of the same sequence?
Answer: The value was 1.3 ± 0.26 kcal/mol.

Question: With “SAGMTALFTDSSGKEVTFSHPNLELTVDPETGVVSAYEPESNLKVEVKVAPDKVTVTVYSGSSSKEIPLSAG [r5_786_JUSTAS]” as the sequence, how does the “folding stability dG unfold” value [1] read?
Answer: Its value is -0.226 ± 0.064 kcal/mol.

Question: And the “folding stability dG unfold” value [2]?
Answer: The value was 0.956 ± 0.16 kcal/mol.

Question: And the “folding stability dG unfold” value [3]?
Answer: Its value is 0.574 ± 0.11 kcal/mol.

Question: Which results are given for “SAGGSMTVVIVKLRPPDSPEVLYLPFRGRLPNGDWVPISLEELLEALEALPDLEVEEIIVAPPEEISAGGSA [r2_192_TrMRF]”?
Answer: folding stability dG unfold [1]: 1.73 ± 0.16 kcal/mol; folding stability dG unfold [2]: 1.74 ± 0.087 kcal/mol; folding stability dG unfold [3]: 1.7 ± 0.23 kcal/mol

Question: Which “folding stability dG unfold” value [1] does the source give for “SAGGSAGGSAGDEKYTLTVTIPVPKNAPVLVGAEKGYEVIDLNPDAPVEEGYITVKVEFGSAGGSAGGSAGG [r11_701_TrMRF]” here?
Answer: The value was -0.376 ± 0.086 kcal/mol.

Question: And the “folding stability dG unfold” value [2]?
Answer: Its value is -0.833 ± 0.14 kcal/mol.

Question: What about the “folding stability dG unfold” value [3] of the same sequence?
Answer: Its value is -0.391 ± 0.15 kcal/mol.

Question: For “SAGGSAGGSAGGPYEKAVEAAKALGSEDKPITIKLPNGTTVTLKPSELPSLPYEDPIVLLSAGGSAGGSAGG [r7_863_JUSTAS]”, which “folding stability dG unfold” value [1] is on record?
Answer: Its value is 0.367 ± 0.093 kcal/mol.

Question: What about the “folding stability dG unfold” value [2] of the same sequence?
Answer: The value was 0.259 ± 0.18 kcal/mol.

Question: And the “folding stability dG unfold” value [3]?
Answer: Its value is 0.353 ± 0.17 kcal/mol.

Question: With “SAGGSAGGKLVLKIKIYNKKTKKVYEFEIEADSLEELKEALKKLGLPKDVKIVSVELRPLDEEPSAGGSAGG [r6_23_TrROS_Hall]” as the sequence, how does the “folding stability dG unfold” value [1] read?
Answer: The value was 3.65 ± 0.1 kcal/mol.

Question: What about the “folding stability dG unfold” value [2] of the same sequence?
Answer: Its value is 4.96 ± 0.075 kcal/mol.

Question: And the “folding stability dG unfold” value [3]?
Answer: Its value is 4.79 ± 0.092 kcal/mol.

Question: With “SAGMEVEWEIGDADEDGYVRLTVKAVLLIPETGKPVVVEAEIKMPIEELENEEVLKELARKVVEEAEAESAG [r5_964_TrMRF]” as the sequence, how does the “folding stability dG unfold” value [1] read?
Answer: Its value is 1.4 ± 0.037 kcal/mol.

Question: And the “folding stability dG unfold” value [2]?
Answer: The value was 2.1 ± 0.032 kcal/mol.

Question: And the “folding stability dG unfold” value [3]?
Answer: Its value is 1.85 ± 0.086 kcal/mol.

Question: With “SAGGSAGGSAMPVKVKVTVKARFGDKEFELEFEIEVGPGATEEDIKNLVTEKYPGFEEVELESAGGSAGGSA [r18_195_JUSTAS]” as the sequence, how does the “folding stability dG unfold” value [1] read?
Answer: The value was 1.92 ± 0.083 kcal/mol.

Question: And the “folding stability dG unfold” value [2]?
Answer: The value was 2.16 ± 0.11 kcal/mol.

Question: What about the “folding stability dG unfold” value [3] of the same sequence?
Answer: Its value is 2.16 ± 0.12 kcal/mol.

Question: Which “folding stability dG unfold” value [1] does the source give for “SAGGSPEVKVLLFYDPATGERVVVVVTYDPATGEKKVLVFVESRPELVELVKKLLEDLGYEVEVVPSAGGSA [r2_30_TrMRF]” here?
Answer: Its value is 3.39 ± 0.19 kcal/mol.

Question: What about the “folding stability dG unfold” value [2] of the same sequence?
Answer: The value was 3.82 ± 0.16 kcal/mol.

Question: What about the “folding stability dG unfold” value [3] of the same sequence?
Answer: The value was 3.63 ± 0.11 kcal/mol.

Question: For “SAGGSAGGSMIFFPNITKEEFEEIFRKKGYKVKRYPSTNVIEVTGKDGKPIKAVVIPVSPEEFSAGGSAGGS [r12_211_TrMRF]”, which “folding stability dG unfold” value [1] is on record?
Answer: Its value is 0.677 ± 0.058 kcal/mol.

Question: What about the “folding stability dG unfold” value [2] of the same sequence?
Answer: The value was 0.618 ± 0.13 kcal/mol.

Question: And the “folding stability dG unfold” value [3]?
Answer: Its value is 0.668 ± 0.088 kcal/mol.

Question: With “SKPPSDPGSIEFSFPDSSNVTVTIPVPLPPNTTVSISLSDGKSYTVPGGTTFTFTLPPGKPFTVTVNIRSSA [r9_79_JUSTAS]” as the sequence, how does the “folding stability dG unfold” value [1] read?
Answer: The value was 3.75 ± 0.2 kcal/mol.

Question: And the “folding stability dG unfold” value [2]?
Answer: Its value is 4.47 ± 0.061 kcal/mol.

Question: What about the “folding stability dG unfold” value [3] of the same sequence?
Answer: Its value is 4.23 ± 0.2 kcal/mol.

Question: What does the source list for “SAGGSAKPKIKINIFYPKDGQWYVMIQDPGGEEVMGPWDDIDKIIEAGIPADDVEIEWMPMPPGQFSAGGSA [r15_955_TrROS]”?
Answer: folding stability dG unfold [1]: 1.03 ± 0.014 kcal/mol; folding stability dG unfold [2]: 1.15 ± 0.048 kcal/mol; folding stability dG unfold [3]: 1.09 ± 0.05 kcal/mol

Question: For “SAGGMPIKELTAEEIAALLKEKLGVDVEIEEVKVTVERDENGNYVLRIEVKFKETNETITLEIVLPKSAGGS [r16_42_TrROS_Hall]”, which “folding stability dG unfold” value [1] is on record?
Answer: Its value is 2.94 ± 0.093 kcal/mol.

Question: And the “folding stability dG unfold” value [2]?
Answer: Its value is 4.2 ± 0.16 kcal/mol.

Question: What about the “folding stability dG unfold” value [3] of the same sequence?
Answer: The value was 3.86 ± 0.14 kcal/mol.

Question: For “SAGGSAGGSAGGPVRLLVLEVPVENVEEVVRRLEALGSVRPVRVERLPGDRYRVLVVSPLSAGGSAGGSAGG [r7_589_TrMRF]”, which “folding stability dG unfold” value [1] is on record?
Answer: Its value is 1.3 ± 0.046 kcal/mol.

Question: What about the “folding stability dG unfold” value [2] of the same sequence?
Answer: Its value is 1.54 ± 0.05 kcal/mol.

Question: And the “folding stability dG unfold” value [3]?
Answer: The value was 1.46 ± 0.056 kcal/mol.

Question: For “SAGGSAGGSAGMTYRVRIENADGEVVTIEISADELREKGLTLEELLPPNARIVEVEEVEPSAGGSAGGSAGG [r11_829_TrROS_Hall]”, which “folding stability dG unfold” value [1] is on record?
Answer: Its value is 3.8 ± 0.16 kcal/mol.

Question: What about the “folding stability dG unfold” value [2] of the same sequence?
Answer: The value was 3.61 ± 0.063 kcal/mol.

Question: What about the “folding stability dG unfold” value [3] of the same sequence?
Answer: Its value is 3.63 ± 0.09 kcal/mol.

Question: Which results are given for “SAGGSAGGGMPISISITVTLSDGTVLEFTVTVPENAPDPASVAAALAAEIKAAHPDVAVTFTPASAGGSAGG [r6_132_JUSTAS]”?
Answer: folding stability dG unfold [1]: 0.849 ± 0.054 kcal/mol; folding stability dG unfold [2]: 1.72 ± 0.025 kcal/mol; folding stability dG unfold [3]: 1.53 ± 0.077 kcal/mol

Reference: the supplement of paper PMC12764529
